In experiment [1] the target is T1, Recombinant biotinylated human P-Selectin protein (human, UniProt P16109 42-771, limits assumed, biotinylated (site not stated)).
T1 sequence (looked up): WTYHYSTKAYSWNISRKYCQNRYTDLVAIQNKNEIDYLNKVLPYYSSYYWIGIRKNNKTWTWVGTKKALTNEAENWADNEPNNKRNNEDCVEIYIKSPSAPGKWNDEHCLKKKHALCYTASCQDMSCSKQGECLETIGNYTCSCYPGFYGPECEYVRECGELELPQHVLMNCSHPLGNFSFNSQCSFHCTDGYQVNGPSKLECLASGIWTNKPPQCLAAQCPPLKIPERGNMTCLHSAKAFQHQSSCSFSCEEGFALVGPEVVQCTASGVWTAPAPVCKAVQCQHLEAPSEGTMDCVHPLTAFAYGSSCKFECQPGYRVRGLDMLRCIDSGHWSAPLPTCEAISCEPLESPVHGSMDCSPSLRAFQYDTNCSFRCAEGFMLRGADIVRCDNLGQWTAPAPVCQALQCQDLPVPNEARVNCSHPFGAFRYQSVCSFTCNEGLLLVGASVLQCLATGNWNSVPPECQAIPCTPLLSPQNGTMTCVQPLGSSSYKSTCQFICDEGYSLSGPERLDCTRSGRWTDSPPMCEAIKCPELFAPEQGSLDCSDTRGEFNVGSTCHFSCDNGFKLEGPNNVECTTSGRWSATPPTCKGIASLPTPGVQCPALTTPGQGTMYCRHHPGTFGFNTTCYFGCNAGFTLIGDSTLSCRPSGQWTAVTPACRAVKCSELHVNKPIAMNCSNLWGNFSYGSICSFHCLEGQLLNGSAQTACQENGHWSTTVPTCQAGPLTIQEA
As to the kind of experiment: SPR (Biacore), biotinylated human P-selectin captured on streptavidin chip, peptide as analyte; peptide BCY5458, a separate peptide number. The method, then:
(§1) Biacore experiments were performed to determine ka (M−1s−1), kd (s−1), KD (nM) values of monomeric peptides binding to human Selectin proteins. Recombinant biotinylated human P-Selectin protein was used. For analysis of binding, either a Biacore 3000 or 5200 instrument was used with a CMS sensor chip (GE Healthcare). For sensor chip surface preparation, streptavidin was immobilized on the chip using standard amine-coupling chemistry at 25° C. with HBS-N (10 mM HEPES, 0.15 M NaCl, pH 7.4) as the running buffer. The carboxymethyl dextran surface was activated with a 12 min injection of a 1:1 ratio of 0.4 M 1-ethyl-3-(3-dim ethyl aminopropyl) carbodiimide hydrochloride (EDC)/0.1 M N-hydroxy succinimide (NHS) at a flow rate of 10 μl/min. For capture of streptavidin, protein was diluted to 0.2 mg/ml in 10 mM sodium acetate (pH 4.5) and captured by injecting 70 μl onto the activated chip surface. Residual activated groups were blocked with a 7 min injection of 1 M ethanolamine (pH 8.5). Biotinylated protein stock was diluted 1:100 in HBS-N and captured on one flow cell at 5 μl/min to a level of 1000-1500 RU. Buffer was changed to PBS/0.05% Tween 20 and a dilution series of the peptides was prepared in this buffer with a final DMSO concentration of 0.5%. […] In all cases a titration was performed with either seven 2-fold dilutions or five 3-fold dilutions. […]
(SPR reads the build-up and loss of mass on a sensor chip optically.)

Experiment [2] has as its target T1, Recombinant biotinylated human …. The experiment in a line: SPR (Biacore), biotinylated human P-selectin captured on streptavidin chip, peptide as analyte; peptide BCY10194 (A-(SEQ ID NO: 6)-A). The method, then:
as §1

Experiment [3] shares this target. As to the kind of experiment: inhibition of 5 nM P-selectin binding to HL-60 cells (PSGL1), mirrorball cytometer, geomean of n=3. Here is the method: Bicycle test samples, SelG1 (Crizanlizumab) were serially diluted maintaining 0.5% DMSO in assay buffer (25 mM HEPES, 121 mM NaCl, 5.4 mM KCl, 0.8 mM MgCl₂, 1.8 mM CaCl₂), 6 mM NaHCO₂, 5.5 mM glucose, 1% BSA, pH7.4) and transferred to 384 well clear bottom plates (Corning, 3712) with a final volume of 6 μL. […], of P-Selectin in imaging buffer (25 mM HEPES, 121 mM NaCl, 5.4 mM KCl, 0.8 mM MgCl₂, 1.8 mM CaCl₂), 6 mM NaHCO₂, 5.5 mM glucose, pH7.4) was added to give a 5 nM final concentration and incubated at room temperature for 15 minutes. HL-60 cells (ATCC, CCL-240) mixed with 1 μg/mL far red labelled wheat germ agglutinin (WGA, ThermoFisher W21404) and 1 μg/mL AlexaFluor 488-streptavidin (Invitrogen S11223) were added to the plate and incubated for 2 hours at room temperature in the absence of light. Staining and antibody binding were quantified by simultaneously scanning the microplates with 488 nm and 640 nm lasers on a mirrorball microplate cytometer, AF488 on FL2 triggering on AF647-WGA on FL4. Data was analysed in Dotmatics, using a four parameter logistic fit to generate IC50 values and % response. Percent inhibition was calculated using 100−% response at top concentration.

The target is the same in experiment [4]. The experiment in a line: SPR (Biacore), biotinylated human P-selectin captured on streptavidin chip, peptide as analyte; peptide BCY5459, a separate peptide number. Here is the method: as §1
For experiment [5] the target is unchanged. As to the kind of experiment: SPR (Biacore), biotinylated human P-selectin captured on streptavidin chip, peptide as analyte; peptide BCY12261, a separate peptide number. Here is the method: as §1
The target is the same in experiment [6]. As to the kind of experiment: SPR (Biacore), biotinylated human P-selectin captured on streptavidin chip, peptide as analyte. The method, then: Biacore experiments were performed to determine ka (M−1s−1), kd (s−1), KD (nM) values of monomeric peptides binding to human Selectin proteins. Recombinant biotinylated human P-Selectin protein was used. For analysis of binding, either a Biacore 3000 or 5200 instrument was used with a CMS sensor chip (GE Healthcare). For sensor chip surface preparation, streptavidin was immobilized on the chip using standard amine-coupling chemistry at 25° C. with HBS-N (10 mM HEPES, 0.15 M NaCl, pH 7.4) as the running buffer. The carboxymethyl dextran surface was activated with a 12 min injection of a 1:1 ratio of 0.4 M 1-ethyl-3-(3-dim ethyl aminopropyl) carbodiimide hydrochloride (EDC)/0.1 M N-hydroxy succinimide (NHS) at a flow rate of 10 μl/min. For capture of streptavidin, protein was diluted to 0.2 mg/ml in 10 mM sodium acetate (pH 4.5) and captured by injecting 70 μl onto the activated chip surface. Residual activated groups were blocked with a 7 min injection of 1 M ethanolamine (pH 8.5). Biotinylated protein stock was diluted 1:100 in HBS-N and captured on one flow cell at 5 μl/min to a level of 1000-1500 RU. Buffer was changed to PBS/0.05% Tween 20 and a dilution series of the peptides was prepared in this buffer with a final DMSO concentration of 0.5%. […] In all cases a titration was performed with either seven 2-fold dilutions or five 3-fold dilutions. The SPR analysis was run at 25° C. with a flow rate of 50-80 μl/min with 60 seconds association and a suitable disassociation period (100-900 seconds). Data were corrected for DMSO excluded volume effects. All data were double-referenced for blank injections and reference surface using standard processing procedures and data processing and kinetic fitting were performed using Scrubber software, version 2.0c (BioLogic Software). Data were fitted using mass transport model allowing for mass transport effects where appropriate.

For experiment [7] the target is unchanged. The experiment in a line: SPR (Biacore), biotinylated human P-selectin captured on streptavidin chip, peptide as analyte; peptide BCY12257, a separate peptide number. Here is the method: as §1
The target is the same in experiment [8]. As to the kind of experiment: SPR (Biacore), biotinylated human P-selectin captured on streptavidin chip, peptide as analyte; peptide BCY5463, a separate peptide number. Here is the method: as §1
Experiment [9] has the same target. The experiment in a line: SPR (Biacore), biotinylated human P-selectin captured on streptavidin chip, peptide as analyte; peptide BCY5462, a separate peptide number. Here is the method:
as §1

For experiment [10] the target is unchanged. The experiment in a line: SPR (Biacore), biotinylated human P-selectin captured on streptavidin chip, peptide as analyte; peptide BCY12259, a separate peptide number. The method, then:
as §1

For experiment [11] the target is unchanged. The experiment in a line: SPR (Biacore), biotinylated human P-selectin captured on streptavidin chip, peptide as analyte; peptide BCY5454, a separate peptide number. Here is the method: as §1

Starred links: 1 amine or outer side, 2 acyl side, 3 side chain; linkers in the order of their positions; H or OH if unused. Positions of bridges follow the written chain, without caps; N, C: chain ends. Non-standard residues stand in square brackets, D forms with d. Primed or numbered codes have the meaning given here. No end group written: not given here. *: point of attachment. TCAZ″ = 1,1',1''-(1,4,7-triazonane-1,4,7-triyl)tris(2-chloroethan-1-one) scaffold, O=C(C[*:1])N1CCN(C(=O)C[*:2])CCN(C(=O)C[*:3])CC1; TCAZ = 1,1',1''-(1,4,7-triazonane-1,4,7-triyl)tris(2-chloroethan-1-one); TATA = O=C(CC[*:1])N1CN(C(=O)CC[*:2])CN(C(=O)CC[*:3])C1; 1Nal = N[C@@H](Cc1cccc2ccccc12)C(=O)O; Pent4ynoyl = C#CCCC(=O)* Some results are limits rather than exact numbers.

B1: BCY5458 (peptide)
peptide: Pent4ynoyl-ACYMEWCDVTDYGCA-NH2
modifications: linker 2-7-14 via TATA; also: trimer of 3 copies via central hinge B (TCA) and spacer S1A n=10 joined to N-terminal Pya
A word on the Kd: it is a measure of binding affinity in units of concentration. Consider B1, for which the Kd in [1] was 400 nM.

ACYMEWCDVTDYGCA-NH2 (linker 2-7-14 via TATA, Monomeric bicyclic peptide) [BCY10194]: the Kd in [2] was 9.5 µM.

B2: SelG1 (Crizanlizumab) (antibody, V domains shown)
VH: QVQLVQSGAEVKKPGASVKVSCKVSGYTFTSYDINWVRQAPGKGLEWMGWIYPGDGSIKYNEKFKGRVTMTVDKSTDTAYMELSSLRSEDTAVYYCARRGEYGNYEGAMDYWGQGTLVTVSS
VL: DIQMTQSPSSLSASVGDRVTITCKASQSVDYDGHSYMNWYQQKPGKAPKLLIYAASNLESGVPSRFSGSGSGTDFTLTISSLQPEDFATYYCQQSDENPLTFGGGTKVEIK
As a reminder, the IC50 is the concentration at which inhibition is half-maximal. A word on the Inhibition: it is the percentage by which the read-out fell short of the control. For B2, in [3], the IC50 came out at 4.75 nM and the “Inhibition at top concentration (%)” value stood at 96%.

B3: BCY5459 (peptide)
peptide: Pent4ynoyl-ACYMEWCDVTDYGCA-NH2
modifications: linker 2-7-14 via TATA; also: trimer of 3 copies via central hinge B (TCA) and spacer S1A n=23 joined to N-terminal Pya
With B3, the Kd in [4] stood at 169 nM.

B4: BCY12261 (peptide)
peptide: ACDADWCDVPSLPCAK(Pent4ynoyl)-NH2
modifications: linker 2-7-14 via TCAZ″; not fully specified; also: tetramer of 4 copies via central hinge A (Tet) and spacer S1A n=23 joined to K(Pya)
For B4, the Kd in experiment [5] is 0.019 nM.

Turning to ACDADWCDVPSLPCA-NH2 (linker 2-7-14 via TCAZ″, Monomeric bicyclic peptide) [BCY11648], the Kd in experiment [6] turned out to be 128 nM. In addition, in experiment [3], the IC50 is over 117 nM and the “Inhibition at top concentration (%)” value is 37%.

For ACDAD[1Nal]CDVPSLPCA-NH2 (linker 2-7-14 via TCAZ, Monomeric bicyclic peptide) [BCY12027], in [6], the Kd worked out at 5.36 nM. In addition, in experiment [3], the IC50 was over 36.8 nM and the “Inhibition at top concentration (%)” value was determined as 36%.

B5: BCY12257 (peptide)
peptide: ACDADWCDVPSLPCAK(Pent4ynoyl)-NH2
modifications: linker 2-7-14 via TCAZ″; not fully specified; also: tandem dimer of 2 copies via central hinge C (GTA) and spacer S1A n=23 joined to K(Pya)
B5: the Kd in [7] is 11.6 nM.

B6: BCY5463 (peptide)
peptide: Pent4ynoyl-ACYMEWCDVTDYGCA-NH2
modifications: linker 2-7-14 via TATA; also: tetramer of 4 copies via central hinge A (Tet) and spacer S1A n=23 joined to N-terminal Pya
In the case of B6, the dissociation constant Kd in [8] stood at 53 nM.

B7: BCY5462 (peptide)
peptide: Pent4ynoyl-ACYMEWCDVTDYGCA-NH2
modifications: linker 2-7-14 via TATA; also: tetramer of 4 copies via central hinge A (Tet) and spacer S1A n=10 joined to N-terminal Pya
Regarding B7, in experiment [9], the Kd turned out to be 88 nM.

B8: BCY9717 (peptide)
peptide: Ac-CYMEWCDVTDYGC-NH2
modifications: linker 1-6-13 via TATA
notes: Monomeric bicyclic peptide; also called BCY09717
In the case of B8, the Kd in [6] was found to be 7600 nM. In addition, in [3], the IC50 is over 10900 nM and the “Inhibition at top concentration (%)” value is 20%.

B9: BCY12259 (peptide)
peptide: ACDADWCDVPSLPCAK(Pent4ynoyl)-NH2
modifications: linker 2-7-14 via TCAZ″; not fully specified; also: trimer of 3 copies via central hinge B (TCA) and spacer S1A n=23 joined to K(Pya)
For B9, the Kd in experiment [10] is 0.233 nM.

On to Ac-ACYME[1Nal]CDVTDYGCA-NH2 (linker 2-7-14 via TATA, Monomeric bicyclic peptide) [BCY11279], for which, in experiment [6], the Kd turned out to be 690 nM. In experiment [3], the IC50 is over 3540 nM and the “Inhibition at top concentration (%)” value was found to be 24%.

B10: BCY5454 (peptide)
peptide: Pent4ynoyl-ACYMEWCDVTDYGCA-NH2
modifications: linker 2-7-14 via TATA; also: tandem dimer of 2 copies via central hinge C (GTA) and spacer S1A n=10 joined to N-terminal Pya
Take B10: the Kd in experiment [11] turned out to be 400 nM.

Values taken from patent US20220339289A1 (Bicycle, published 2022).
